Assay results taken from patent publication US20220054955A1.

Biological target: GST
Experiment: photo-crosslinking of 7 mg/ml GST with 1 mM aziethyl glutathione (337 nm, 30 minutes), whole-protein LCMS

percent of GST molecules covalently crosslinked: 40%
Substance: aziethyl glutathione
